Reference: the supplement of paper PMC11316812
± gives the standard deviation of the averaged measurements.

Experiments:
MCF7 = test: percentage of EdU-negative (G0-arrested) nuclei per well, 72 h; higher = more G0 arrest; details: reference: sequence is the full UniProt precursor, the tested protein was the secreted form or ectodomain
hTERT-HMEC = test: as above; details: reference: sequence is the full UniProt precursor, the tested protein was the secreted form or ectodomain
[1] = protein concentration 0.0225 µM
[2] = protein concentration 0.0165714 µM
[3] = protein concentration 0.165714 µM
[4] = protein concentration 0.03125 µM
[5] = protein concentration 0.3125 µM
[6] = protein concentration 0.00525 µM
[7] = protein concentration 0.0525 µM
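Further: secreted proteins added to cultured cells, EdU pulse at the end, nuclei found by Hoechst imaging, EdU status from nuclear versus surrounding ring intensity ratio, PBS as neutral control.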

Sequence of Q8WXD2 (chain, as listed by the source): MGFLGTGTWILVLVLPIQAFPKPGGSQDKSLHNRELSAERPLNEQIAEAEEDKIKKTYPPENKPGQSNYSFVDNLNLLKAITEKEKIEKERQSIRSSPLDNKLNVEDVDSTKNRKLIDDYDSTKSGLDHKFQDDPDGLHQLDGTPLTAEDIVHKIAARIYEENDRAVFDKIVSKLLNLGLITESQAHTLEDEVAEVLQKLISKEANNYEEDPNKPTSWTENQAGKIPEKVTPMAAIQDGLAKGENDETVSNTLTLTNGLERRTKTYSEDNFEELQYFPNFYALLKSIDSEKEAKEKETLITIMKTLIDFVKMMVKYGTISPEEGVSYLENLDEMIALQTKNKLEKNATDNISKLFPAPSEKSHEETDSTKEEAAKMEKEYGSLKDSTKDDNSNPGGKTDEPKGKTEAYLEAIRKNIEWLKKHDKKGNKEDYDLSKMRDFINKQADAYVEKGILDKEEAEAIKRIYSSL

“MEPAAALHFSLPASLLLLLLLLLLSLCALVSAQFTVVGPANPILAMVGENTTLRCHLSPEKNAEDMEVRWFRSQFSPAVFVYKGGRERTEEQMEEYRGRITFVSKDINRGSVALVIHNVTAQENGIYRCYFQEGRSYDEAILRLVVAGLGSKPLIEIKAQEDGSIWLECISGGWYPEPLTVWRDPYGEVVPALKEVSIADADGLFMVTTAVIIRDKYVRNVSCSVNNTLLGQEKETVIFIPESFMPSASPWMVALAVILTASPWMVSMTVILAVFIIFMAVSICCIKKLQREKKILSGEKKVEQEEKEIAQQLQEELRWRRTFLHAADVVLDPDTAHPELFLSEDRRSVRRGPYRQRVPDNPERFDSQPCVLGWESFASGKHYWEVEVENVMVWTVGVCRHSVERKGEVLLIPQNGFWTLEMFGNQYRALSSPERILPLKESLCRVGVFLDYEAGDVSFYNMRDRSHIYTCPRSAFTVPVRPFFRLGSDDSPIFICPALTGASGVMVPEEGLKLHRVGTHQSL [Q8WVV5]” was tested, and the “percentage of EdU-negative” value (MCF7; [1]) was 25.6 ± 3.6%, the “percentage of EdU-negative” value (MCF7; protein concentration 0.225 µM) was 27.8 ± 0.4% and the “percentage of EdU-negative” value (hTERT-HMEC; [1]) was 4.5399 ± 0.0037%. For the same substance, the “percentage of EdU-negative” value (hTERT-HMEC; protein concentration 0.225 µM) was 8.99 ± 1.1%.
In the case of “MIAFLLTSVLMIPHAGGHPLDTPHLPQELPPGLPNNINITFFSGMFKNVESVAEIFDCLGPHFTWLQAVFTNFPVLIQFVNGMKCVAGLCPRDFEDYGCTCRFEMEGLPVDESDSCCFQHRRCYEEAAEMDCLQDPAKLSTEVNCVSKKIICESKDNCEHLLCTCDKAAIECLARSSLNSSLNLLDTSFCLAQTPETTIKEDLTTLLPRVVPVEPTDTSLTALSGEEAGHDQEGVGAARATSPPGSAEIVATRVTAKIVTLVPAGIKSLGLAVSSVENDPEETTEKACDRFTFLHLGSGDNMQVMPQLGEMLFCLTSRCPEEFESYGCYCGQEGRGEPRDDLDRCCLSHHCCLEQVRRLGCLLERLPWSPVVCVDHTPKCGGQSLCEKLLCACDQTAAECMTSASFNQSLKSPSRLGCPGQPAACEDSLHPVPAAPTLGSSSEEDSEEDPPQEDLGRAKRFLRKSLGPLGIGPLHGR”, the “percentage of EdU-negative” value (MCF7; [1]) is reported as 26.2 ± 2.5%, the “percentage of EdU-negative” value (MCF7; protein concentration 0.225 µM) is reported as 25.7 ± 0.78% and the “percentage of EdU-negative” value (hTERT-HMEC; [1]) is reported as 5.21 ± 0.36%. The “percentage of EdU-negative” value (hTERT-HMEC; protein concentration 0.225 µM) was 5.66 ± 0.11%.
“MRRASRDYTKYLRGSEEMGGGPGAPHEGPLHAPPPPAPHQPPAASRSMFVALLGLGLGQVVCSVALFFYFRAQMDPNRISEDGTHCIYRILRLHENADFQDTTLESQDTKLIPDSCRRIKQAFQGAVQKELQHIVGSQHIRAEKAMVDGSWLDLAKRSKLEAQPFAHLTINATDIPSGSHKVSLSSWYHDRGWAKISNMTFSNGKLIVNQDGFYYLYANICFRHHETSGDLATEYLQLMVYVTKTSIKIPSSHTLMKGGSTKYWSGNSEFHFYSINVGGFFKLRSGEEISIEVSNPSLLDPDQDATYFGAFKVRDID” was tested, and the “percentage of EdU-negative” value (MCF7; [1]) was 28.6 ± 1.4%, the “percentage of EdU-negative” value (MCF7; protein concentration 0.225 µM) was 25.6 ± 1.6% and the “percentage of EdU-negative” value (hTERT-HMEC; [1]) was 4.57 ± 0.17%. The “percentage of EdU-negative” value (hTERT-HMEC; protein concentration 0.225 µM) was 5.25 ± 0.66%.
In the case of “MQPTGREGSRALSRRYLRRLLLLLLLLLLRQPVTRAETTPGAPRALSTLGSPSLFTTPGVPSALTTPGLTTPGTPKTLDLRGRAQALMRSFPLVDGHNDLPQVLRQRYKNVLQDVNLRNFSHGQTSLDRLRDGLVGAQFWSASVSCQSQDQTAVRLALEQIDLIHRMCASYSELELVTSAEGLNSSQKLACLIGVEGGHSLDSSLSVLRSFYVLGVRYLTLTFTCSTPWAESSTKFRHHMYTNVSGLTSFGEKVVEELNRLGMMIDLSYASDTLIRRVLEVSQAPVIFSHSAARAVCDNLLNVPDDILQLLKKNGGIVMVTLSMGVLQCNLLANVSTVADHFDHIRAVIGSEFIGIGGNYDGTGRFPQGLEDVSTYPVLIEELLSRSWSEEELQGVLRGNLLRVFRQVEKVREESRAQSPVEAEFPYGQLSTSCHSHLVPQNGHQATHLEVTKQPTNRVPWRSSNASPYLVPGLVAAATIPTFTQWLC [Q9H4B8]”, the “percentage of EdU-negative” value (MCF7; [1]) is reported as 26.5 ± 1.8%, the “percentage of EdU-negative” value (MCF7; protein concentration 0.225 µM) is reported as 27.6 ± 3% and the “percentage of EdU-negative” value (hTERT-HMEC; [1]) is reported as 5.33 ± 1.2%. The “percentage of EdU-negative” value (hTERT-HMEC; protein concentration 0.225 µM) was 5.49 ± 1.1%.
With “MGVCGYLFLPWKCLVVVSLRLLFLVPTGVPVRSGDATFPKAMDNVTVRQGESATLRCTIDDRVTRVAWLNRSTILYAGNDKWSIDPRVIILVNTPTQYSIMIQNVDVYDEGPYTCSVQTDNHPKTSRVHLIVQVPPQIMNISSDITVNEGSSVTLLCLAIGRPEPTVTWRHLSVKEGQGFVSEDEYLEISDIKRDQSGEYECSALNDVAAPDVRKVKITVNYPPYISKAKNTGVSVGQKGILSCEASAVPMAEFQWFKEETRLATGLDGMRIENKGRMSTLTFFNVSEKDYGNYTCVATNKLGNTNASITLYGPGAVIDGVNSASRALACLWLSGTLLAHFFIKF” the “percentage of EdU-negative” value (MCF7; [1]) was 23.9 ± 0.79%, the “percentage of EdU-negative” value (MCF7; protein concentration 0.225 µM) was 23.8 ± 1.2% and the “percentage of EdU-negative” value (hTERT-HMEC; [1]) was 4.81 ± 0.74%. The “percentage of EdU-negative” value (hTERT-HMEC; protein concentration 0.225 µM) was 5.39 ± 1.6%.
For “MGPLSAPPCTQRITWKGLLLTALLLNFWNLPTTAQVTIEAEPTKVSKGKDVLLLVHNLPQNLAGYIWYKGQMKDLYHYITSYVVDGQIIIYGPAYSGRETVYSNASLLIQNVTREDAGSYTLHIVKRGDGTRGETGHFTFTLYLETPKPSISSSNLYPREDMEAVSLTCDPETPDASYLWWMNGQSLPMTHSLQLSKNKRTLFLFGVTKYTAGPYECEIRNPVSASRSDPVTLNLLPKLPKPYITINNLNPRENKDVLAFTCEPKSENYTYIWWLNGQSLPVSPRVKRPIENRILILPSVTRNETGPYQCEIQDRYGGIRSYPVTLNVLYGPDLPRIYPSFTYYHSGENLYLSCFADSNPPAEYSWTINGKFQLSGQKLFIPQITTKHSGLYACSVRNSATGMESSKSMTVKVSAPSGTGHLPGLNPL”, the “percentage of EdU-negative” value (MCF7; [2]) was 24.4 ± 1.2%, the “percentage of EdU-negative” value (MCF7; [3]) was 24.3 ± 0.28% and the “percentage of EdU-negative” value (hTERT-HMEC; [2]) was 4.85 ± 0.26%. For the same substance, the “percentage of EdU-negative” value (hTERT-HMEC; [3]) was 5.01 ± 0.47%.
P32881 was tested, and the “percentage of EdU-negative” value (MCF7; [4]) was 46 ± 0.63%, the “percentage of EdU-negative” value (MCF7; [5]) was 49.3 ± 0.71% and the “percentage of EdU-negative” value (hTERT-HMEC; [4]) was 25.9 ± 1.2%. The “percentage of EdU-negative” value (hTERT-HMEC; [5]) was 30.4 ± 4.1%.
With Q8WXD2 the “percentage of EdU-negative” value (MCF7; [2]) was 25.6 ± 3.6%, the “percentage of EdU-negative” value (MCF7; [3]) was 29.2 ± 1.7% and the “percentage of EdU-negative” value (hTERT-HMEC; [2]) was 5.59 ± 0.58%. The “percentage of EdU-negative” value (hTERT-HMEC; [3]) was 6.19 ± 0.24%.
Q9BZZ2 was tested, and the “percentage of EdU-negative” value (MCF7; [6]) was 26.9 ± 2.3%, the “percentage of EdU-negative” value (MCF7; [7]) was 31.1 ± 2.4% and the “percentage of EdU-negative” value (hTERT-HMEC; [6]) was 4.58 ± 0.46%. The “percentage of EdU-negative” value (hTERT-HMEC; [7]) was 21.5 ± 2.5%.
